Results on six proteins are retold here after paper PMC10406883.

Data set [1] is described as follows: Confocal: 4F2hc membrane expression, colocalization with xCT. The note with it: glycan lost; control: WT 4F2hc reconstitution.
The nature of data set [2]: Western blot, shSLC3A2 PANC-1. The note with it: glycan lost.
A short description of data set [3]: Flow cytometry, shSLC3A2 MIA PaCa-2. The note with it: glycan lost; control: WT 4F2hc reconstitution in shSLC3A2 MIA PaCa-2. Background: A flow cytometer gives signals particle by particle.
Data set [4] can be described thus: CHX chase, 4F2hc remaining by western blot.
Data set [5] in a line: Confocal and flow cytometry, PANC-1. The note with it: glycan lost; control: no PNGase F.
Data set [6] can be described thus: Confocal: membrane colocalization of 4F2hc and xCT. The note with it: glycan lost; control: no tunicamycin.
Data set [7] can be described thus: Western blot, PANC-1, BxPC-3, MIA PaCa-2. The note with it: glycan changed form; control: Cas9Control cells.

B1: 4F2hc (CD98hc): N365Q (protein)
parent chain: MELQPPEASIAVVSIPRQLPGSHSEAGVQGLSAGDDSELGSHCVAQTGLELLASGDPLPSASQNAEMIETGSDCVTQAGLQLLASSDPPALASKNAEVTGTMSQDTEVDMKEVELNELEPEKQPMNAASGAAMSLAGAEKNGLVKIKVAEDEAEAAAAAKFTGLSKEELLKVAGSPGWVRTRWALLLLFWLGWLGMLAGAVVIIVRAPRCRELPAQKWWHTGALYRIGDLQAFQGHGAGNLAGLKGRLDYLSSLKVKGLVLGPIHKNQKDDVAQTDLLQIDPNFGSKEDFDSLLQSAKKKSIRVILDLTPNYRGENSWFSTQVDTVATKVKDALEFWLQAGVDGFQVRDIENLKDASSFLAEWQNITKGFSEDRLLIAGTNSSDLQQILSLLESNKDLLLTSSYLSDSGSTGEHTKSLVTQYLNATGNRWCSWSLSQARLLTSFLPAQLLRLYQLMLFTLPGTPVFSYGDEIGLDAAALPGQPMEAPVMLWDESSFPDIPGAVSANMTVKGQSEDPGSLLSLFRRLSDQRSKERSLLHGDFHAFSAGPGLFSYIRHWDQNERFLVVLNFGDVGLSAGLQASDLPASASLPAKADLLLSTQPGREEGSPLELERLKLEPHEGLLLRFPYAA
As for B1, the localisation_or_trafficking result in data set [1] is on record as “decreases”. In addition, in data set [2], the “other: protein levels of xCT, GPX4, B3GNT3” value is given as “decreases”. Moreover, in data set [3], the “other: membrane expression of partner xCT” value is reported as “decreases”. Besides, the degradation_or_half_life result in data set [4] (glycan lost) is given as “decreases”.

B2: 4F2hc (CD98hc): 122-311del B3GNT3 (protein)
parent chain: MELQPPEASIAVVSIPRQLPGSHSEAGVQGLSAGDDSELGSHCVAQTGLELLASGDPLPSASQNAEMIETGSDCVTQAGLQLLASSDPPALASKNAEVTGTMSQDTEVDMKEVELNELEPEKQPMNAASGAAMSLAGAEKNGLVKIKVAEDEAEAAAAAKFTGLSKEELLKVAGSPGWVRTRWALLLLFWLGWLGMLAGAVVIIVRAPRCRELPAQKWWHTGALYRIGDLQAFQGHGAGNLAGLKGRLDYLSSLKVKGLVLGPIHKNQKDDVAQTDLLQIDPNFGSKEDFDSLLQSAKKKSIRVILDLTPNYRGENSWFSTQVDTVATKVKDALEFWLQAGVDGFQVRDIENLKDASSFLAEWQNITKGFSEDRLLIAGTNSSDLQQILSLLESNKDLLLTSSYLSDSGSTGEHTKSLVTQYLNATGNRWCSWSLSQARLLTSFLPAQLLRLYQLMLFTLPGTPVFSYGDEIGLDAAALPGQPMEAPVMLWDESSFPDIPGAVSANMTVKGQSEDPGSLLSLFRRLSDQRSKERSLLHGDFHAFSAGPGLFSYIRHWDQNERFLVVLNFGDVGLSAGLQASDLPASASLPAKADLLLSTQPGREEGSPLELERLKLEPHEGLLLRFPYAA
Regarding B2, in data set [4] (glycan changed form, control: 122-311OE (active B3GNT3) in B3GNT3KO cells), the degradation_or_half_life result was “decreases”.

B3: 4F2hc (CD98hc): PNGase F (protein)
parent chain: MELQPPEASIAVVSIPRQLPGSHSEAGVQGLSAGDDSELGSHCVAQTGLELLASGDPLPSASQNAEMIETGSDCVTQAGLQLLASSDPPALASKNAEVTGTMSQDTEVDMKEVELNELEPEKQPMNAASGAAMSLAGAEKNGLVKIKVAEDEAEAAAAAKFTGLSKEELLKVAGSPGWVRTRWALLLLFWLGWLGMLAGAVVIIVRAPRCRELPAQKWWHTGALYRIGDLQAFQGHGAGNLAGLKGRLDYLSSLKVKGLVLGPIHKNQKDDVAQTDLLQIDPNFGSKEDFDSLLQSAKKKSIRVILDLTPNYRGENSWFSTQVDTVATKVKDALEFWLQAGVDGFQVRDIENLKDASSFLAEWQNITKGFSEDRLLIAGTNSSDLQQILSLLESNKDLLLTSSYLSDSGSTGEHTKSLVTQYLNATGNRWCSWSLSQARLLTSFLPAQLLRLYQLMLFTLPGTPVFSYGDEIGLDAAALPGQPMEAPVMLWDESSFPDIPGAVSANMTVKGQSEDPGSLLSLFRRLSDQRSKERSLLHGDFHAFSAGPGLFSYIRHWDQNERFLVVLNFGDVGLSAGLQASDLPASASLPAKADLLLSTQPGREEGSPLELERLKLEPHEGLLLRFPYAA
As to B3, the localisation_or_trafficking result in data set [5] is given as “abolishes”.

B4: 4F2hc (CD98hc): tunicamycin (TM) (protein)
parent chain: MELQPPEASIAVVSIPRQLPGSHSEAGVQGLSAGDDSELGSHCVAQTGLELLASGDPLPSASQNAEMIETGSDCVTQAGLQLLASSDPPALASKNAEVTGTMSQDTEVDMKEVELNELEPEKQPMNAASGAAMSLAGAEKNGLVKIKVAEDEAEAAAAAKFTGLSKEELLKVAGSPGWVRTRWALLLLFWLGWLGMLAGAVVIIVRAPRCRELPAQKWWHTGALYRIGDLQAFQGHGAGNLAGLKGRLDYLSSLKVKGLVLGPIHKNQKDDVAQTDLLQIDPNFGSKEDFDSLLQSAKKKSIRVILDLTPNYRGENSWFSTQVDTVATKVKDALEFWLQAGVDGFQVRDIENLKDASSFLAEWQNITKGFSEDRLLIAGTNSSDLQQILSLLESNKDLLLTSSYLSDSGSTGEHTKSLVTQYLNATGNRWCSWSLSQARLLTSFLPAQLLRLYQLMLFTLPGTPVFSYGDEIGLDAAALPGQPMEAPVMLWDESSFPDIPGAVSANMTVKGQSEDPGSLLSLFRRLSDQRSKERSLLHGDFHAFSAGPGLFSYIRHWDQNERFLVVLNFGDVGLSAGLQASDLPASASLPAKADLLLSTQPGREEGSPLELERLKLEPHEGLLLRFPYAA
As to B4, the localisation_or_trafficking entry in data set [6] is recorded as “decreases”. Also, in data set [4] (glycan lost, control: no tunicamycin), the degradation_or_half_life entry was “decreases”.

B5: 4F2hc (CD98hc): 4NQ (protein)
parent chain: MELQPPEASIAVVSIPRQLPGSHSEAGVQGLSAGDDSELGSHCVAQTGLELLASGDPLPSASQNAEMIETGSDCVTQAGLQLLASSDPPALASKNAEVTGTMSQDTEVDMKEVELNELEPEKQPMNAASGAAMSLAGAEKNGLVKIKVAEDEAEAAAAAKFTGLSKEELLKVAGSPGWVRTRWALLLLFWLGWLGMLAGAVVIIVRAPRCRELPAQKWWHTGALYRIGDLQAFQGHGAGNLAGLKGRLDYLSSLKVKGLVLGPIHKNQKDDVAQTDLLQIDPNFGSKEDFDSLLQSAKKKSIRVILDLTPNYRGENSWFSTQVDTVATKVKDALEFWLQAGVDGFQVRDIENLKDASSFLAEWQNITKGFSEDRLLIAGTNSSDLQQILSLLESNKDLLLTSSYLSDSGSTGEHTKSLVTQYLNATGNRWCSWSLSQARLLTSFLPAQLLRLYQLMLFTLPGTPVFSYGDEIGLDAAALPGQPMEAPVMLWDESSFPDIPGAVSANMTVKGQSEDPGSLLSLFRRLSDQRSKERSLLHGDFHAFSAGPGLFSYIRHWDQNERFLVVLNFGDVGLSAGLQASDLPASASLPAKADLLLSTQPGREEGSPLELERLKLEPHEGLLLRFPYAA
Turning to B5, the localisation_or_trafficking entry in data set [1] was “decreases”. The “other: protein levels of xCT, GPX4, B3GNT3” value in data set [2] is reported as “decreases”. Also, the “other: membrane expression of partner xCT” value in data set [3] is on record as “decreases”. Moreover, in data set [4] (glycan lost), the degradation_or_half_life entry was “decreases”.

B6: 4F2hc (CD98hc): B3GNT3KO (protein)
parent chain: MELQPPEASIAVVSIPRQLPGSHSEAGVQGLSAGDDSELGSHCVAQTGLELLASGDPLPSASQNAEMIETGSDCVTQAGLQLLASSDPPALASKNAEVTGTMSQDTEVDMKEVELNELEPEKQPMNAASGAAMSLAGAEKNGLVKIKVAEDEAEAAAAAKFTGLSKEELLKVAGSPGWVRTRWALLLLFWLGWLGMLAGAVVIIVRAPRCRELPAQKWWHTGALYRIGDLQAFQGHGAGNLAGLKGRLDYLSSLKVKGLVLGPIHKNQKDDVAQTDLLQIDPNFGSKEDFDSLLQSAKKKSIRVILDLTPNYRGENSWFSTQVDTVATKVKDALEFWLQAGVDGFQVRDIENLKDASSFLAEWQNITKGFSEDRLLIAGTNSSDLQQILSLLESNKDLLLTSSYLSDSGSTGEHTKSLVTQYLNATGNRWCSWSLSQARLLTSFLPAQLLRLYQLMLFTLPGTPVFSYGDEIGLDAAALPGQPMEAPVMLWDESSFPDIPGAVSANMTVKGQSEDPGSLLSLFRRLSDQRSKERSLLHGDFHAFSAGPGLFSYIRHWDQNERFLVVLNFGDVGLSAGLQASDLPASASLPAKADLLLSTQPGREEGSPLELERLKLEPHEGLLLRFPYAA
On to B6, for which the expression_or_secretion result in data set [7] is “increases”. Moreover, the degradation_or_half_life result in data set [4] (glycan changed form, control: Cas9Control cells) was “decreases”.
